Reference: the supplement of paper PMC5998384

Assays:
HeLa Kyoto [1] = experiment: thermal stability score vs G1/S (z-score of summed log2 fold changes over temperatures); higher = more thermally stable than in G1/S
HeLa Kyoto [2] = experiment: solubility change mitosis vs G1/S (difference of NP-40 vs SDS log2 ratios) (log2 ratio difference); higher = more soluble in mitosis
HeLa Kyoto [3] = experiment: solubility in G1/S (NP-40 vs SDS abundance) (log2 ratio); higher = more soluble; conditions: cell cycle stage: G1/S
HeLa Kyoto [4] = experiment: melting temperature (median over replicates), in situ; higher = more thermally stable
[5] = cell cycle stage: early G1 (4.5 h after nocodazole release)
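Wherever melting temperature (median over replicates), in situ is given: HeLa Kyoto cells synchronized by double thymidine or nocodazole block, proteins quantified by TMT10plex mass spectrometry, three independent biological replicates.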
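Wherever solubility change mitosis vs G1/S (difference of NP-40 vs SDS log2 ratios) is given: synchronized HeLa Kyoto cells (double thymidine block for G1/S, nocodazole release for mitosis), protein amounts in NP-40 versus SDS lysates quantified by mass spectrometry, three biological replicates.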
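Wherever solubility in G1/S (NP-40 vs SDS abundance) is given: HeLa Kyoto cells arrested at G1/S by double thymidine block, proteins quantified by TMT10plex mass spectrometry in mild NP-40 versus SDS extracts, three biological replicates.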
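Wherever thermal stability score vs G1/S (z-score of summed log2 fold changes over temperatures) is given: synchronized HeLa Kyoto cells, proteins quantified by TMT10plex mass spectrometry, three biological replicates, mitosis taken 0.5 h after nocodazole release, G1/S directly after double thymidine block.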

| Sequence | thermal stability score (HeLa Kyoto [1]; [5]) | thermal stability score (HeLa Kyoto [1]; cell cycle stage: mitosis) | solubility change mitosis (log2) (HeLa Kyoto [2]) | solubility in G1/S (log2) (HeLa Kyoto [3]) | melting temperature (HeLa Kyoto [4]; cell cycle stage: G1/S) [°C] | melting temperature (HeLa Kyoto [4]; cell cycle stage: mitosis) [°C] |
| --- | --- | --- | --- | --- | --- | --- |
| MKPRPAGFVDNKLKQRVIQYLTSNKCGKYVDIGVLASDLQRVYSIDYGRRKRNAFRIQVEKVFSIISSEKELKNLTELEDEHLAKRARQGEEDNEYTESYSDDDSSMEDYPDPQSANHMNSSLLSLYRKGNPDSVSNTPEMEQRETTSSTPRISSKTGSIPLKTPAKDSEGGWFIDKTPSVKKDSFFLDLSCEKSNPKKPITEIQDSKDSSLLESDMKRKGKLKNKGSKRKKEDLQEVDGEIEAVLQKKAKARGLEFQISNVKFEDVGGNDMTLKEVCKMLIHMRHPEVYHHLGVVPPRGVLLHGPPGCGKTLLAHAIAGELDLPILKVAAPEIVSGVSGESEQKLRELFEQAVSNAPCIIFIDEIDAITPKREVASKDMERRIVAQLLTCMDDLNNVAATARVLVIGATNRPDSLDPALRRAGRFDREICLGIPDEASRERILQTLCRKLRLPQAFDFCHLAHLTPGFVGADLMALCREAAMCAVNRVLMKLQEQQKKNPEMEDLPSKGVQEERLGTEPTSETQDELQRLLGLLRDQDPLSEEQMQGLCIELNDFIVALSSVQPSAKREGFVTVPNVTWADIGALEDIREELTMAILAPVRNPDQFKALGLVTPAGVLLAGPPGCGKTLLAKAVANESGLNFISVKGPELLNMYVGESERAVRQVFQRAKNSAPCVIFFDEVDALCPRRSDRETGASVRVVNQLLTEMDGLEARQQVFIMAATNRPDIIDPAILRPGRLDKTLFVGLPPPADRLAILKTITKNGTKPPLDADVNLEAIAGDLRCDCYTGADLSALVREASICALRQEMARQKSGNEKGELKVSHKHFEEAFKKVRSSISKKDQIMYERLQESLSR [NVL] | 1.41 | 1.19 | 0.882 | -1.77 | 53.8 | 52.7 |
| MGCDGGTIPKRHELVKGPKKVEKVDKDAELVAQWNYCTLSQEILRRPIVACELGRLYNKDAVIEFLLDKSAEKALGKAASHIKSIKNVTELKLSDNPAWEGDKGNTKGDKHDDLQRARFICPVVGLEMNGRHRFCFLRCCGCVFSERALKEIKAEVCHTCGAAFQEDDVIMLNGTKEDVDVLKTRMEERRLRAKLEKKTKKPKAAESVSKPDVSEEAPGPSKVKTGKPEEASLDSREKKTNLAPKSTAMNESSSGKAGKPPCGATKRSIADSEESEAYKSLFTTHSSAKRSKEESAHWVTHTSYCF [RTFDC1] | 1.24 | 2.61 | -0.0475 | 0.0863 | 47.6 | 50.2 |
| MEELSADEIRRRRLARLAGGQTSQPTTPLTSPQRENPPGPPIAASAPGPSQSLGLNVHNMTPATSPIGASGVAHRSQSSEGVSSLSSSPSNSLETQSQSLSRSQSMDIDGVSCEKSMSQVDVDSGIENMEVDENDRREKRSLSDKEPSSGPEVSEEQALQLVCKIFRVSWKDRDRDVIFLSSLSAQFKQNPKEVFSDFKDLIGQILMEVLMMSTQTRDENPFASLTATSQPIAAAARSPDRNLLLNTGSNPGTSPMFCSVASFGASSLSSLYESSPAPTPSFWSSVPVMGPSLASPSRAASQLAVPSTPLSPHSAASGTAAGSQPSSPRYRPYTVTHPWASSGVSILSSSPSPPALASSPQAVPASSSRQRPSSTGPPLPPASPSATSRRPSSLRISPSLGASGGASNWDSYSDHFTIETCKETDMLNYLIECFDRVGIEEKKAPKMCSQPAVSQLLSNIRSQCISHTALVLQGSLTQPRSLQQPSFLVPYMLCRNLPYGFIQELVRTTHQDEEVFKQIFIPILQGLALAAKECSLDSDYFKYPLMALGELCETKFGKTHPVCNLVASLRLWLPKSLSPGCGRELQRLSYLGAFFSFSVFAEDDVKVVEKYFSGPAITLENTRVVSQSLQHYLELGRQELFKILHSILLNGETREAALSYMAAVVNANMKKAQMQTDDRLVSTDGFMLNFLWVLQQLSTKIKLETVDPTYIFHPRCRITLPNDETRVNATMEDVNDWLTELYGDQPPFSEPKFPTECFFLTLHAHHLSILPSCRRYIRRLRAIRELNRTVEDLKNNESQWKDSPLATRHREMLKRCKTQLKKLVRCKACADAGLLDESFLRRCLNFYGLLIQLLLRILDPAYPDITLPLNSDVPKVFAALPEFYVEDVAEFLFFIVQYSPQALYEPCTQDIVMFLVVMLCNQNYIRNPYLVAKLVEVMFMTNPAVQPRTQKFFEMIENHPLSTKLLVPSLMKFYTDVEHTGATSEFYDKFTIRYHISTIFKSLWQNIAHHGTFMEEFNSGKQFVRYINMLINDTTFLLDESLESLKRIHEVQEEMKNKEQWDQLPRDQQQARQSQLAQDERVSRSYLALATETVDMFHILTKQVQKPFLRPELGPRLAAMLNFNLQQLCGPKCRDLKVENPEKYGFEPKKLLDQLTDIYLQLDCARFAKAIADDQRSYSKELFEEVISKMRKAGIKSTIAIEKFKLLAEKVEEIVAKNARAEIDYSDAPDEFRDPLMDTLMTDPVRLPSGTIMDRSIILRHLLNSPTDPFNRQTLTESMLEPVPELKEQIQAWMREKQNSDH [UBE4B] | 1.2 | 2.15 | -0.0982 | -0.0721 | 51.3 | 51.8 |
| MEAARTAVLRVKRKRSAEPAEALVLACKRLRSDAVESAAQKTSEGLERAAENNVFHLVATVCSQEEPVQPLLREVLRPSRDSQQRVRRNLRASAREVRQEGRYRVLSSRRSLGTTSSGQESEYTPGNPEAAGNSGFQLLDLVHEEGEPEAASAGSCKTSDPDVILCNSVELIRERLTVSEDGPGVRRQEEQKHDDYVYDIYYLETATPGWIENILSVQPYSQEWELVNDDQEPEDIYDDEDDENSENNWRNEYPEEESSDGDEDSRGSADYNSLSEEERGSSRQRMWSKYPLDVQKEFGYDSPHDLDSD [SLC7A6OS] | -0.0342 | 0.677 | -0.117 | 0.343 | 52.4 | 54 |
| MGVTCVSQMPVAEGKSVQQTVELLTRKLEMLGAEKQGTFCVDCETYHTAASTLGSQGQTGKLMYVMHNSEYPLSCFALFENGPCLIADTNFDVLMVKLKGFFQSAKASKIETRGTRYQYCDFLVKVGTVTMGPSARGISVEVEYGPCVVASDCWSLLLEFLQSFLGSHTPGAPAVFGNRHDAVYGPADTMVQYMELFNKIRKQQQVPVAGIR [MED20] | -0.587 | -0.494 | -0.0509 | 0.339 | 51.7 | 52.7 |
| MAAAAAGTATSQRFFQSFSDALIDEDPQAALEELTKALEQKPDDAQYYCQRAYCHILLGNYCVAVADAKKSLELNPNNSTAMLRKGICEYHEKNYAAALETFTEGQKLDIETGFHRVGQAGLQLLTSSDPPALDSQSAGITGADANFSVWIKRCQEAQNGSESEVWTHQSKIKYDWYQTESQVVITLMIKNVQKNDVNVEFSEKELSALVKLPSGEDYNLKLELLHPIIPEQSTFKVLSTKIEIKLKKPEAVRWEKLEGQGDVPTPKQFVADVKNLYPSSSPYTRNWDKLVGEIKEEEKNEKLEGDAALNRLFQQIYSDGSDEVKRAMNKSFMESGGTVLSTNWSDVGKRKVEINPPDDMEWKKY [SUGT1] | 0.39 | -0.171 | -0.0323 | 0.138 | 51.5 | 52 |
